# Laboratory results published in publication PMC3575409, “Identification of a Novel Protein-Protein Interaction Motif Mediating Interaction of GPCR-Associated Sorting Proteins with G Protein-Coupled Receptors” (PLoS ONE, 2013).
# Values joined by “and” are separate entries in the source; they are usually repeats but may differ in a detail not shown here. Identical values can stand only once.
# B1: central domain of GASP-1: central portion of GASP-1 (AA 380 to 1073) that contains 19 GASP motif (protein)
# chain: MTKEEAKTKARARAKQEARSEEEALIGTWFWATDESSMADEASIESSLQVEDESIIGSWFWTEEEASMGTGASSKSRPRTDGERIGDSLFGAREKTSMKTGAEATSESILAADDEQVIIGSWFWAGEEVNQEAEEETIFGSWFWVIDAASVESGVGVSCESRTRSEEEEVIGPWFWSGEQVDIEAGIGEEARPGAEEETIFGSWFWAENQTYMDCRAETSCDTMQGAEEEEPIIGSWFWTRVEACVEGDVNSKSSLEDKEEAMIPCFGAKEEVSMKHGTGVRCRFMAGAEETNNKSCFWAEKEPCMYPAGGGSWKSRPEEEEDIVNSWFWSRKYTKPEAIIGSWLWATEESNIDGTGEKAKLLTEEETIINSWFWKEDEAISEATDREESRPEAEEGDIIGSWFWAGEEDRLEPAAETREEDRLAAEKEGIVGSWFGAREETIRREAGSCSKSSPKAEEEEVIIGSWFWEEEASPEAVAGVGFESKPGTEEEEITVGSWFWPEEEASIQAGSQAVEEMESETEEETIFGSWFWDGKEVSEEAGPCCVSKPEDDEEMIVESWFWSRDKAIKETGTVATCESKPENEEGAIVGSWFEAEDEVDNRTDNGSNCGSRTLADEDEAIVGSWFWAGDEAHFESNPSPVFRAICRSTCSVEQEPDPSRRPQSWEEVTVQFKPGPWGRVGFPSISPFRFPKE
# modifications: left off: GST, N-terminal, kept
# notes: central portion of GASP-1 (AA 380 to 1073) that contains 19 GASP motif
# System: full-length CNR2 (cannabinoid receptor type 2)
# Assay: SPR saturation binding, CNR2
# Design: species or system human
# Experimental: The human ADRB2 and CNR2 receptors were produced using the P. pastoris expression system as previously described, [16]. After methanol-induced receptor expression, cells were washed with PBS pH 7.0 and resuspended in ice-cold buffer A (50 mM Tris-HCl pH 7.4, 500 mM NaCl, 10% glycerol, 5 mM EDTA, 1 mM PMSF, 2 mM DDT). Cells were then lysed with two cycles of 20 s shaking and 20 s cooling on ice using 0.5 mm glass beads in a FastPrep 24 device. Unbroken cells and cell debris were removed by centrifugation (3000 g, 5 min, 4°C) and the membrane fraction from the supernatant was pelleted by ultracentrifugation (100,000 g, 45 min, 4°C). […] Finally membranes were resuspended in buffer B and quantified with the bicinchoninic acid (BCA) method (Pierce).
# Approximately 150 mg membrane proteins were extracted by 5 min incubation at room temperature in buffer C (50 mM Tris-HCl pH 7.4, 500 mM NaCl, 10% glycerol, 1 mM PMSF, 2 mM DTT, 50 mM imidazole, 1% (w/v) DDM, 0.1% (w/v) CHS). […] Imidazole was removed from the eluted fraction using a HiTrap 5 ml desalting column (GE Healthcare), purified proteins were quantified using the BCA assay (Pierce) and receptor integrity was analyzed by SDS-PAGE. […]
molecule,measurement,setting,value
B1,dissociation rate constant k d,"25°C, 50 mM Tris-HCl pH 7.4, 150 mM NaCl, 0.1% DDM, 0.01% CHS, captured GST-tagged central domain (AA 380–1073)",6.5±0.1×10^−4 s^−1 and < 10^−3 s^−1
same,kinetics of the interaction,full-length CNR2,very stable and had a slow association rate
